Data reported in publication PMC2756776 (Arteriosclerosis, thrombosis, and vascular biology, 2009).

Biological target: Factor XI (FXI), plasma-derived (human)
Assay: ELISA

Kd: 61 nM
B1: Soluble recombinant ApoER2’ (a splice variant of ApoER2 lacking LDL-binding domains 4, 5 and 6) (receptor)
chain: not shown
